PMC3334367 (Molecular Cell, 2012)

Molecular target: T1, GST-RNC (GST fused N-terminal RNC domain of Kog1, amino acids 1-637) (yeast, UniProt P38873 1-637)
T1 sequence (looked up): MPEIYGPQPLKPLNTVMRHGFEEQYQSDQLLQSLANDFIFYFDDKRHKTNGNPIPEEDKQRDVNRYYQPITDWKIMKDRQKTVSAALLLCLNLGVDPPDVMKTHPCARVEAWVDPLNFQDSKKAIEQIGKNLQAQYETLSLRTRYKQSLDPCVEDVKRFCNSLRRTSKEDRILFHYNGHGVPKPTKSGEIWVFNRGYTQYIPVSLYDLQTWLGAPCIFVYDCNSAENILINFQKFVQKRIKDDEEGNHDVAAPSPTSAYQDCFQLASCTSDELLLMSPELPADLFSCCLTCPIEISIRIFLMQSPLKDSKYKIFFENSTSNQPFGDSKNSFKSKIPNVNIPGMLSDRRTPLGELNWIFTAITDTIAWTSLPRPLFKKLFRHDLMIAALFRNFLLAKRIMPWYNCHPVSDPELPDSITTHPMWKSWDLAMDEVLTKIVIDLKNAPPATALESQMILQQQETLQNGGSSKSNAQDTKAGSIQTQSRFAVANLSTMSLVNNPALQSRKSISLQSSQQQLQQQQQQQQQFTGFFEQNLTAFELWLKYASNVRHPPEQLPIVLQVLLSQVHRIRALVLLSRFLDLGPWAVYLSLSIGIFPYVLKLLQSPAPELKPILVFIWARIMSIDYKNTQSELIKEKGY
Test: pull-down

Binder	binding result
His tagged recombinant Rho1 (natural protein, yeast, UniProt P06780 1-209, looked up) MSQQVGNSIRRKLVIVGDGACGKTCLLIVFSKGQFPEVYVPTVFENYVADVEVDGRRVELALWDTAGQEDYDRLRPLSYPDSNVVLICFSIDLPDSLENVQEKWIAEVLHFCQGVPIILVGCKVDLRNDPQTIEQLRQEGQQPVTSQEGQSVADQIGATGYYECSAKTGYGVREVFEAATRASLMGKSKTNGKAKKNTTEKKKKKCVLL	binds
His tagged recombinant Tap42 (natural protein, yeast, UniProt Q04372 1-366, looked up) MASVTEQFNDIISLYSTKLEHTSLRQDSPEYQGLLLSTIKKLLNLKTAIFDRLALFSTNETIDDVSTASIKFLAVDYYLGLLISRRQSNDSDVAQRQSMKLIYLKKSVESFINFLTLLQDYKLLDPLVGEKLGNFKDRYNPQLSELYAQPKNNKDLSGAQLKRKEKIELFQRNKEISTKLHCLELELKNNDEDHDHDELLRELYLMRLHHFSLDTINNIEQNLFECEMLSNFLKNSVHEVKSSGTQIRKESNDDDSTGFTDKLENINKPLIDKKGQVLRNFTLVDKRQQLQQKVRGYGQYGPTMSVEEFLDKEFEEGRVLQGGEEPEQAPDEENMDWQDRETYKAREWDEFKESHAKGSGNTMNRG	binds
